The supplement of paper PMC10567573
± gives the standard deviation.

Experiment: protein stability index of a GFP-peptide fusion (GPS, HEK-293T) (PSI 1-6); higher = more stable
[1] = treatment: DMSO, c terminus: a fixed tail appended
[2] = treatment: MLN4924 1 uM, 8 h, c terminus: a fixed tail appended
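Note: 24-mer peptide tiles fused after GFP, lentivirally expressed, FACS-sorted into six equal bins by GFP/DsRed ratio, decoded by Illumina sequencing, PSI is the read-weighted mean bin number.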

Row | Sequence | protein stability index [1] | protein stability index [2] | protein stability index (treatment: DMSO, c terminus: native) | protein stability index (treatment: MLN4924 1 uM, 8 h, c terminus: native)
1 | TWALYNLVSVYPDKYCPLLIKEGG [ZER1] | 2.62 ± 0.99 | 2.26 ± 0.34 |  | 
2 | TWAMRQRGTHAVVGVATADAPLHS [SPSB1] | 2.72 ± 0.34 | 2.87 ± 0.23 |  | 
3 | VAAAASRGADDAMESSKPGPVQVV [ATL3] | 5.03 ± 0.26 | 4.9 ± 0.25 |  | 
4 | VALLNKTNVKFLAITTDCLQILAY [CTNNB1] | 2.86 ± 0.51 | 2.91 ± 0.42 |  | 
5 | VALLRAHAGEHLLLGATKRSMVFK [HNF4A] | 2.27 ± 0.45 | 2.48 ± 0.096 |  | 
6 | VASKMKETIPLTAEKLCIYTDNSI [CCND1] | 3.15 ± 0.42 | 3.33 ± 0.084 |  | 
7 | VAWHPVRPIIASISSGVVSIWAQN [RBBP5] | 2.48 ± 0.48 | 2.5 ± 0.39 |  | 
8 | VCGGAQRPGHLPGLLLGSHGLLGS [CDC25B] | 1.9 ± 0.96 | 3.24 ± 1.6 |  | 
9 | VCVDRVLYLFGGHHSRGNTNKFYM [KLHDC2] | 2.37 ± 1.4 | 2.86 ± 1.1 |  | 
10 | VCVEHHTFFRLLLPEAPPKKFLTL [EPB41L3] |  | 2.85 ± 0.42 |  | 
11 | VEEFGVVSNTRLIAAATSVLKTRF [CCNC] | 2.88 ± 0.61 | 2.26 ± 0.68 |  | 
12 | VEPKHCFTSPDYQQQCHEMAERLE [SDE2] | 4.85 ± 0.21 | 4.83 ± 0.18 |  | 
13 | VEQPQPQFISRFLEGQSGVTIKHV [NEK8] | 3.27 ± 0.18 | 3.29 ± 0.17 |  | 
14 | VGAAETTLTELRRTVQSLEIDLDS [KRT18] | 4.51 ± 0.19 | 4.86 ± 0.24 |  | 
15 | VGGVLRGLNHSLSYDVALHRTRLQ [SCARA5] | 2.59 ± 0.18 | 2.84 ± 0.32 |  | 
16 | VGMNFLHCMAPPLLHLDLKPANIL [RIPK4] | 2.73 ± 0.57 | 2.14 ± 0.63 |  | 
17 | VGPWLGQLQELLHHCDDHLSLYQL [RSAD1] | 2.25 ± 0.45 | 2.6 ± 0.55 |  | 
18 | VHEHDGHLYLGSFRSPFLCRLSLQ [APMAP] | 2.73 ± 0.51 | 2.33 ± 0.41 |  | 
19 | VHRQLSHLYAEPQKSPWCEARSLE [ESR2] | 2.92 ± 0.28 | 3.2 ± 0.24 |  | 
20 | VHYLHSKRIAHFDLKPENIMLLDK [DAPK3] | 2.33 ± 0.34 | 2.17 ± 0.28 |  | 
21 | VISKKAKVKVPQKTAGKENHFDMH [ZNF75A] | 3.08 ± 0.24 | 3.06 ± 0.26 |  | 

Row | Sequence | protein stability index [1] | protein stability index [2] | protein stability index (treatment: DMSO, c terminus: native) | protein stability index (treatment: MLN4924 1 uM, 8 h, c terminus: native)
22 | VIYNYVQRPFIRMSWEKEEGKSRH [BTBD10] | 2.24 ± 0.32 | 2.46 ± 0.17 |  | 
23 | VKEKFSPEAFTEQLYRYVTKLLV [ALG2] |  |  | 3.38 ± 0.3 | 3.16 ± 0.16
24 | VKGCSMYVALFPCNECAKLIIQAG [DCTD] | 2.97 ± 0.37 | 2.8 ± 0.49 |  | 
25 | VKKDHVALQVPRGKEDSTLQLLRE [CBY2] | 4.26 ± 0.069 | 4.37 ± 0.07 |  | 
26 | VLDVNNQSFREQEEPSNKRVRPLA [NET1] | 3.46 ± 0.2 | 3.99 ± 0.28 |  | 
27 | VLEVRTENLKQQRSRREQFSRAPV [STX5] | 3.4 ± 0.45 | 3.63 ± 0.41 |  | 
28 | VLFSTHTLDKCGICQGDGSSCTHV [ADAMTSL2] | 3.8 ± 0.22 | 4.09 ± 0.19 |  | 
29 | VLFSVAGGLFVGKEGPMIHSGSVV [CLCN6] | 2.58 ± 0.34 | 2.74 ± 0.5 |  | 
30 | VLGSQDALPIATAFTEYVHAYFRG [FCHO1] | 2.51 ± 0.25 | 2.43 ± 0.21 |  | 
31 | VLIDLWKITKVMDVRLDREHRVAG [CLPTM1] | 2.49 ± 0.68 | 2.57 ± 0.83 |  | 
32 | VLISNHVTPFDHNIVNLLTTCSTP [AUP1] | 2.59 ± 0.66 | 2.48 ± 0.35 |  | 
33 | VLLLGSVDGRHLLRTLSRAKFWPR [DNAAF3] | 2.08 ± 0.36 | 2.27 ± 0.15 |  | 
34 | VLNDRFQRQKYLSLQQMQELSNIL [NANOGP8] | 2.52 ± 0.11 | 2.64 ± 0.32 |  | 
35 | VLSLVKKHYRLQFYMFAWTHVTLL [CDS1] | 3.25 ± 0.56 | 2.8 ± 0.56 |  | 
36 | VLVLCVFNSILPGVLILFLTFFAF [SOAT1] | 3.37 ± 0.25 | 3.17 ± 0.22 |  | 
37 | VMARTRLVVPNKGYSSLDQSPDEK [FAM219A] | 4.62 ± 0.34 | 3.88 ± 0.42 |  | 
38 | VMLTLSDSKHVVLPVDDDSDLNVV [RBBP5] | 3.51 ± 0.14 | 3.49 ± 0.25 |  | 
39 | VMTLPSDLRKHRRKLLSPVSREEN [PPFIA4] | 3.61 ± 0.24 | 3.9 ± 0.49 |  | 
40 | VNDLAVGLRRLGLHRTEGELQKIV [SLC25A25] | 3.03 ± 0.074 | 3.02 ± 0.28 |  | 
41 | VPPRRATISSWRNDRMSTRHDGYA [RBMY1A1] | 3.37 ± 0.092 | 3.4 ± 0.36 |  | 
42 | VQRIMVANIEEVLQRGEALSALDS [SEC22B] | 2.85 ± 0.17 | 3.05 ± 0.39 |  | 

Row | Sequence | protein stability index [1] | protein stability index [2] | protein stability index (treatment: DMSO, c terminus: native) | protein stability index (treatment: MLN4924 1 uM, 8 h, c terminus: native)
43 | VQTGLDQYQQVPVEIVKSDFHKPF [IQUB] | 3.5 ± 0.22 | 3.52 ± 0.33 |  | 
44 | VRRECWFLPTALLCAYGFFASLRP [SLC19A2] | 2.95 ± 0.29 | 2.93 ± 0.28 |  | 
45 | VSISVVHGNLSEEAAKQMRSRGKV [CPOX] | 3.37 ± 0.47 | 3.47 ± 0.52 |  | 
46 | VSNTYVKQKTSAALSTMGTLICRK [TPD52L3] | 3.41 ± 0.55 | 2.98 ± 0.41 |  | 
47 | VSREENREDKATIKCETSPPSSPR [PPFIA4] | 5.49 ± 0.48 | 5.53 ± 0.21 |  | 
48 | VSSLSEVEEVDMAEEFEQPTLSCE [ELOA2] | 5.57 ± 0.27 | 5.52 ± 0.17 |  | 
49 | VTQMNHIPMHIDHDRNMDWVSTQL [FADS1] | 3.14 ± 0.45 | 3.02 ± 0.21 |  | 
50 | VTSDVNKLSSFYSLKLIKRLYVDK [SERPINB5] | 2.18 ± 0.18 | 2.29 ± 0.18 |  | 
51 | VTTTSSASVTTTSNASGRRTSDVR [KRT13] | 5.07 ± 0.15 | 5.24 ± 0.15 |  | 
52 | VVAGDTVSTGSTDNSPTSNSLEGG [ADAMTSL2] | 5.39 ± 0.4 | 5.48 ± 0.15 |  | 
53 | VVELLLAHGADPTHRLKDGSTMLI [ANKRD17] | 2.13 ± 0.34 | 2.27 ± 0.85 |  | 
54 | VVFLSPLTTFQDQLNRRGEFIQEI [OAS1] | 2.47 ± 0.5 | 2.35 ± 0.48 |  | 
55 | WAQYRQGEARFLPKDLDPSLCTHL [CHIT1] | 2.65 ± 0.31 | 2.78 ± 0.39 |  | 
56 | WDLSEAWMQANYDPLSDSDSMTSQ [ELOA2] | 4.34 ± 0.33 | 4.45 ± 0.21 |  | 
57 | WEALNMMGLYDGMEHLIYGEPRKL [MAGEA10] | 2.22 ± 0.59 | 2.45 ± 0.34 |  | 
58 | WFHAKSAELNKEVSTNTAMIQTSK [KRT13] | 4.09 ± 0.24 | 4.11 ± 0.11 |  | 
59 | WGFGLEELYGLALRFFKEKDGKAF [ACBD3] | 2.4 ± 0.12 | 2.39 ± 0.61 |  | 
60 | WGGAPKEGSIWRGAQMEKEWARAL [ZSWIM9] | 2.8 ± 0.28 | 2.75 ± 0.25 |  | 
61 | WIAHSEKLPRKVLQHVSEPQAHQE [SPACA9] | 4.11 ± 0.35 | 4.05 ± 0.34 |  | 
62 | WIPQAGPPELNYGATGECQNFLDP [ZNF449] | 4.29 ± 0.18 | 4.28 ± 0.27 |  | 
63 | WKEWGFTGVQEVLSALLRATPGEY [SPAG8] | 2.06 ± 0.78 | 2.2 ± 0.53 |  | 

Row | Sequence | protein stability index [1] | protein stability index [2] | protein stability index (treatment: DMSO, c terminus: native) | protein stability index (treatment: MLN4924 1 uM, 8 h, c terminus: native)
64 | WLPLHYAAWQGHLPIVKLLAKQPG [RIPK4] | 1.94 ± 0.24 | 2.63 ± 0.81 |  | 
65 | WMMQNLLLEEGGLVQVESVNLQVA [UFD1] | 2.1 ± 0.29 | 2.33 ± 0.59 |  | 
66 | WNILKTIALGQMLSLCICGTAITS [SLC35F2] | 3.03 ± 0.37 | 3.03 ± 0.71 |  | 
67 | WVCQRSTVASMMHRQETVECLKKF [CAMK2B] | 2.73 ± 0.51 | 2.9 ± 0.52 |  | 
68 | WYQPSFHGVDLSALRGAAVDEYFR [CARM1] | 2.71 ± 0.18 | 2.75 ± 0.34 |  | 
69 | YDASAIDFSRCDMDGATLCNCALE [ELF3] | 3.99 ± 0.32 | 4.02 ± 0.33 |  | 
70 | YDPDYIQCPYCQRRFNENAADRHI [ZC2HC1A] | 3.84 ± 0.24 | 4.16 ± 0.34 |  | 
71 | YLGLPRLEFYRYYQQLKLEGPGEQ [SLC29A1] | 2.54 ± 0.39 | 2.58 ± 0.38 |  | 
72 | YLHNHFIGEGMTKYDYLMTLHGVV [TENT5D] | 2.83 ± 0.6 | 2.48 ± 0.62 |  | 
73 | YLHTNVALVAPLLRLENNHCHIEE [VPS39] | 2.33 ± 0.2 | 2.74 ± 0.34 |  | 
74 | YMMAKKHLEINPDHPIVETLRQKA [HSP90AB1] | 3.01 ± 0.33 | 3.19 ± 0.39 |  | 
75 | YNCGEESLQSCMHFQPNSPASDLE [NANOGP8] | 4.51 ± 0.19 | 4.17 ± 0.45 |  | 
76 | YQARKPLWFYNTSLKFFLNKPMLA [RHOBTB3] | 2.67 ± 0.57 | 1.97 ± 0.19 |  | 
77 | YQSYFKTIEELQQKILCSKSENAR [KRT33B] | 2.57 ± 0.38 | 2.84 ± 0.49 |  | 
78 | YRHFLKSPNFDGWFKTRRKEMTQK [DENND6A] | 2.83 ± 0.37 | 3.24 ± 0.12 |  | 
79 | YRWQGRRWEPSGKAEPRLPDRVYI [TBX6] | 2.11 ± 0.26 | 2.22 ± 0.37 |  | 
80 | YWKDTRTSGVVFTGLMVSLLCLLH [RTN2] | 2.3 ± 0.24 | 2.2 ± 0.28 |  | 
81 | YYFGPCGKYNAMVLELLGPSLEDL [CSNK1G3] | 3 ± 1.3 | 2.66 ± 0.43 |  | 
